Measurements from doi:10.1101/2021.05.19.444448.

T1: HA-PGBD1 (Homo sapiens, UniProt Q96JS3 1-809)
T1 sequence: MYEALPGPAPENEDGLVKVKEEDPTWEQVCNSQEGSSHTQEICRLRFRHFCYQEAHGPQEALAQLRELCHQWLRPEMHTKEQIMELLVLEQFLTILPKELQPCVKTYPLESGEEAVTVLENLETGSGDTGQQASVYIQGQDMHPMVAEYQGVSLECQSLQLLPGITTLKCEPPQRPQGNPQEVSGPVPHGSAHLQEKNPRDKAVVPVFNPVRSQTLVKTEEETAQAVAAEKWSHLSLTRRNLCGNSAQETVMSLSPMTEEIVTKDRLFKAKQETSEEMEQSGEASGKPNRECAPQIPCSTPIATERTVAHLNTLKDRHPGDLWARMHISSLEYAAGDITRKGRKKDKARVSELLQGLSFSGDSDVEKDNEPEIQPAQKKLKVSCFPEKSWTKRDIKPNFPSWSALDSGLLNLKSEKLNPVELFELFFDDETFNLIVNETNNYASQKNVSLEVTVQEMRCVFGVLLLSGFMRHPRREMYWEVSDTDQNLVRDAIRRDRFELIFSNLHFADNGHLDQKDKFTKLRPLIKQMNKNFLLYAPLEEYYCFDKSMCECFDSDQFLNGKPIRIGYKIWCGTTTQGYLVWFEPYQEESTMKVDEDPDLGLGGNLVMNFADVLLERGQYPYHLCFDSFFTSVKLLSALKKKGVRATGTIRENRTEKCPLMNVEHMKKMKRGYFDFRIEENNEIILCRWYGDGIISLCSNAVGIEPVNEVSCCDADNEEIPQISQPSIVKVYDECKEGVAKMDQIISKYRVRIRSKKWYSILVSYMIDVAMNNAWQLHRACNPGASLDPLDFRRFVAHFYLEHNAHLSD


What was measured:
HA-PGBD1 [1] = molecular target: T1, HA-PGBD1; assay: competition
HA-PGBD1 [2] = molecular target: T1, HA-PGBD1; assay: EMSA

Binder	binding result (HA-PGBD1 [1])	binding result (HA-PGBD1 [2])
unlabelled PGBD1 oligo (competitor) (dsDNA) DNA 1: GCTTTCAATGGAATGGAATGCCTTCC DNA 2: GGAAGGGATTCCATTCCATTGAAAGC	binds	–
SCAN-12 / PGBD1 oligo (GS-PGBD1-UP/LOW) (dsDNA) DNA 1: GCTTTCAATGGAATGGAATGCCTTCC DNA 2: GGAAGGGATTCCATTCCATTGAAAGC	–	binds
